From paper PMC4057782, “tRNA synthetase counteracts c-Myc to develop functional vasculature”

Key:
SerRS delta V2-G14 = SerRS delta V2-G14 (Homo sapiens, UniProt P49591 1-514, del2-14); assay: EMSA; binding abolished; EMSA: 20 mM Tris-HCl pH 8.0, 60 mM KCl, 5 mM MgCl2, 0.1 mg/ml BSA, 10 ng/ul poly(dG-dC), 1 mM DTT, 30 min, room temperature; SPR: 10 mM HEPES pH 7.4, 150 mM NaCl, 0.005% P-20; footprint: 20 mM HEPES pH 7.9, 120 mM KCl, 8 mM MgCl2, 0.2 mM EDTA, 0.5 mM DTT, 0.2 mg/ml BSA, 10 ug/ml poly(dG-dC), 5% glycerol, room temperature; conditions: protein: recombinant; chain copies: 2; label: 5' 32P
Chain of SerRS delta V2-G14 (P49591 other isoform, or with tags, fused parts or gaps del2-14 | mutant): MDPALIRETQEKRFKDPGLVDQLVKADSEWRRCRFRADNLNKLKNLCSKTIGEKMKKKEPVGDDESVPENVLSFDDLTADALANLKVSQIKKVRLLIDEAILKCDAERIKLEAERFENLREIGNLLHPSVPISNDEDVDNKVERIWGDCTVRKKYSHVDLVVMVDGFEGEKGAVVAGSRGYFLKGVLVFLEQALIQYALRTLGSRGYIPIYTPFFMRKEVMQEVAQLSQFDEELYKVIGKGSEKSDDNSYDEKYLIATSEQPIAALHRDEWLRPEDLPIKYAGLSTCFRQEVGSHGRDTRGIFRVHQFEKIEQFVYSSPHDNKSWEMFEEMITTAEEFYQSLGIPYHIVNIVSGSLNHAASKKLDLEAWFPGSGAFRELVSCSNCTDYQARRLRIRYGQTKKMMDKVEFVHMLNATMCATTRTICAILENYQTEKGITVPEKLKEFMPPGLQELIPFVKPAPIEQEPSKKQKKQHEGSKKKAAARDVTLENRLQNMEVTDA

SerRS delta T413-V420 = SerRS delta T413-V420 (Homo sapiens, UniProt P49591 1-514, del413-420); assay: as above; conditions: protein: recombinant; chain copies: 2; label: 5' 32P
Chain of SerRS delta T413-V420 (P49591 other isoform, or with tags, fused parts or gaps del413-420 | mutant): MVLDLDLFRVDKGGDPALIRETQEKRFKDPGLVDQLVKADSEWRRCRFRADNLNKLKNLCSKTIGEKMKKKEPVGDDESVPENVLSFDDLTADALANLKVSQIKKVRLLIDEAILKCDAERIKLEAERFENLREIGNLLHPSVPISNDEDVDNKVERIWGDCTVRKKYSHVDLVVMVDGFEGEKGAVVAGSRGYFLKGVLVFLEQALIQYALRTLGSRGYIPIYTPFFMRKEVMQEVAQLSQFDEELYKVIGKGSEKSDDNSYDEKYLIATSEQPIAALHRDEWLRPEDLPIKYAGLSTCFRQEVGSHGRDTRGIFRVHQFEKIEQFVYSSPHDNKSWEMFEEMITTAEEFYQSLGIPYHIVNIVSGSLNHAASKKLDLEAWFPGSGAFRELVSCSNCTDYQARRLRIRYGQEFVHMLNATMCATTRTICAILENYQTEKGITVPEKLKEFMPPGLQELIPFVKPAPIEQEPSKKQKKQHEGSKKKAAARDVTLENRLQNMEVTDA

B1: VEGFA promoter 27-bp (-62 to -36) (dsDNA)
DNA 1: GGCGGGGCGGAGCCATGCGCCCCCCCC
DNA 2: GGGGGGGGCGCATGGCTCCGCCCCGCC
binding result (SerRS delta V2-G14): no binding | binding result (SerRS delta T413-V420): no binding
